Assay results from US8217006B2, “Inhibiting GS-FDH to modulate no bioactivity” (Duke University, priority 2001, dated 2012).

Substrate: N[C@@H](CCC(=O)N[C@@H](CSN=O)C(=O)NCC(=O)O)C(=O)O
Experiment: cells, lysate or membranes named
Details: other: purified protein from RAW 264.7 cells; pH 8.0

B1: mouse GS-FDH (Mus musculus) (protein)
chain: MANQVIRCKAAVAWEAGKPLSIEEIEVAPPKAHEVRIKILATAVCHTDAYTLSGADPEGCFPVILGHEGAGIVESVGEGVTKLKAGDTVIPLYIPQCGECKFCLNPKTNLCQKIRVTQGKGLMPDGTSRFTCKGKSVFHFMGTSTFSEYTVVADISVAKIDPSAPLDKVCLLGCGISTGYGAAVNTAKVEPGSTCAVFGLGGVGLAVIMGCKVAGASRIIGIDINKDKFAKAKEFGASECISPQDFSKSIQEVLVEMTDGGVDYSFECIGNVKVMRSALEAAHKGWGVSVVVGVAASGEEISTRPFQLVTGRTWKGTAFGGWKSVESVPKLVSEYMSKKIKVDEFVTGNLSFDQINQAFDLMHSGDSIRTVLKM
With B1 the Km was 20 µM and the kcat was 5,600 min^−1.
